Residue numbers refer to the chain shown, from its start.

The record followed here is US20150266957A1 (Regeneron, published 2015).

B1: H4H6680P (antibody, human IgG4, V domains shown)
VH: EVQLVESGGGLVKPGGSLRLSCAVSGFTFSNAWMTWVRQTPGKGLEWVGRIKRKNEGGTIDYAAPVKGRFTISRDDSKNTLYLQMNSLKTEDTAVYYCTPSGSYYGYWGQGTLVTVSS
VL: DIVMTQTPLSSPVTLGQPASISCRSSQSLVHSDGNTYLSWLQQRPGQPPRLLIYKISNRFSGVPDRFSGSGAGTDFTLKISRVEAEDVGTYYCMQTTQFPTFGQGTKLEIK
B2: H4H6385N (antibody, human IgG4, V domains shown)
VH: EVQVVESGGGLVKPGGSLRLSCAASGFTFSNVWMTWVRQAPGKGLEWVGRIKSKIEGGTTDYAASVKGRFTISRDDSKNTQSLQMNSLKSEDTAVYYCSTGHLAYWGQGTLVIVSS
VL: DIVMTQTPLSSPVSLGQPASISCRSSQSLVHSDGSTYLSWLQQRPGQPPRLLIYKISNRFSGVPDRFSGSGAGTDFTLKISRVEAEDVGIYYCMQATQFPTFGQGTKVEIK
notes: Form used in SPR and calcium assays; also called H4HM6385N
B3: H4H6663P (antibody, human IgG4, V domains shown)
VH: EVQLVESGGGLVKPGGSLRLSCAASGFTFSNAWMSWVRQVPGKGLEWVGRIKSKTDGGTTDYAAPVKGRFTISRDDPKNTLYLQMYSLKTEDTAVYYCTTRSMQYWGQGTLVTVSS
VL: B2 VL with S14T, S35Y, S39N
B4: H4H6698P (antibody, human IgG4, V domains shown)
VH: EVQLVESGGGLVKPGGSLRLSCAASGFTFSNVWMTWVRQAPGKGLEWVGRIKTKTDGGTTDYAAPVKGRFTISRDDSKNSLYLQMSSLKTEDTAVYYCTTGHTSYWGQGTLVTVSS
VL: not shown
B5: H4H6701P (antibody, human IgG4, V domains shown)
VH: B4 VH with V32A, I51T, D56E, S80T, S86N, T103I, S104F
VL: not shown
B6: H4H6706P (antibody, human IgG4, V domains shown)
VH: B1 VH with V12I, V24A, T35S, T40A, N55S, E56D, I60T, L81M
VL: not shown
B7: H4H6669P (antibody, human IgG4, V domains shown)
VH: B1 VH with V24A, T40A, E56D, K89R, T99I
VL: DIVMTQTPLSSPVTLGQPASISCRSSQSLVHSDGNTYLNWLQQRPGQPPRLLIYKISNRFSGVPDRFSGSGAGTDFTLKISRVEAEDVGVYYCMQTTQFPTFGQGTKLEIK

cynomolgus monkey PROKR1, sequence (G7PMD0 entry or part of it): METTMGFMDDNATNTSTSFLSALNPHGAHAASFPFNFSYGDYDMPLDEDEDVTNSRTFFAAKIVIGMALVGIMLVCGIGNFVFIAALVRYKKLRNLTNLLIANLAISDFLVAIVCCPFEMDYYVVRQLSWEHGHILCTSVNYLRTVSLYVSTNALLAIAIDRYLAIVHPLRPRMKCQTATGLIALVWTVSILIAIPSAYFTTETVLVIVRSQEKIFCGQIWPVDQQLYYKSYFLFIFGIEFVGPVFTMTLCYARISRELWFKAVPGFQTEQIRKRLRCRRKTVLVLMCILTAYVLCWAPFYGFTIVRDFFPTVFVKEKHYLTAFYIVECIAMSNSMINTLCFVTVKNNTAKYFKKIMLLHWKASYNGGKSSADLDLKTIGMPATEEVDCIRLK
T2 sequence (chain, as listed by the source limits assumed): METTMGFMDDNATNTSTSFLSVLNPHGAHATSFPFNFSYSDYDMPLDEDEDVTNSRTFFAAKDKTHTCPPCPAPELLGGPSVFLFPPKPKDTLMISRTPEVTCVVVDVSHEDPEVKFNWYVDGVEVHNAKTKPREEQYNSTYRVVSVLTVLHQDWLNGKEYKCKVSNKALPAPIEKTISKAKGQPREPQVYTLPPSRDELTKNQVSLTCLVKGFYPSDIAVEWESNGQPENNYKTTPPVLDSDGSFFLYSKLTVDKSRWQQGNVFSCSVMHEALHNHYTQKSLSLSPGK
T4 sequence (Q8K458 whole entry): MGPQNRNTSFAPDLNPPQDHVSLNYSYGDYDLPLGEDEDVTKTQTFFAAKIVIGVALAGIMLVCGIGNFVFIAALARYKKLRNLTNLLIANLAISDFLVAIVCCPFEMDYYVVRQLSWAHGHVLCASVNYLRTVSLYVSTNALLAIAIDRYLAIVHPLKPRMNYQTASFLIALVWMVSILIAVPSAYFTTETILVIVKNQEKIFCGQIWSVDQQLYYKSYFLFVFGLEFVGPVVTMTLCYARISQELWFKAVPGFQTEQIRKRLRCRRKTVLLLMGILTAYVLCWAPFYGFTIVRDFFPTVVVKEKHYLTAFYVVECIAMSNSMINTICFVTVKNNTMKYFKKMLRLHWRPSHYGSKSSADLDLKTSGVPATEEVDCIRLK

The first assay deals with T1, human PROKR2(1-53)-hFc (human).
T1 construct: also called soluble human PROKR2 (N-terminal portion)
Kind of assay: SPR (Biacore 4000), 25 C, antibody captured, antigen injected at 25 and 100 nM. On the procedure:
(§1) Kinetic experiments were carried out using HBS-EP (10 mM HEPES, 150 mM NaCl, 3 mM EDTA, 0.05% Surfactant P20, pH 7.4) as both the running buffer and the sample buffer. Antigen-antibody association rates were measured by injecting 2 concentrations (25 and 100 nM) of both human PROKR1 (1-62)-hFc (SEQ ID NO:179) and human PROKR2(1-53)-hFc (SEQ ID NO:180) over the captured antibody surface. Antibody-antigen association was monitored for 90 seconds while dissociation was monitored for 360 seconds. Kinetic on-rate (kₐ) and off-rate (kd) constants were determined from the data using Scrubber software version 2.0 c. Binding dissociation equilibrium constants (KD) and dissociative half-lives (t 1/2) were calculated from the kinetic rate constants as: KD=kd/kₐ and t 1/2=ln(2)/kd.
With B1, the Kd is 4.23 nM, the koff was 0.000253 s⁻¹, the kon amounted to 59900 M⁻¹ s⁻¹ and the t½ is 46 min.
Regarding B2, the Kd worked out at 11 nM, the off-rate constant (koff) worked out at 0.00539 s⁻¹, the kon is 489000 M⁻¹ s⁻¹ and the t½ was determined as 2 min.
The corresponding values for B3 are 129 nM, 0.0134 s⁻¹, 104000 M⁻¹ s⁻¹ and 1 min.
On the same counts, the results for B4 are 16.1 nM, 0.00857 s⁻¹, 533000 M⁻¹ s⁻¹ and 1 min.
The corresponding values for B5 are 2.41 nM, 0.00215 s⁻¹, 891000 M⁻¹ s⁻¹ and 5 min.

The next assay concerns the target T2, human PROKR1 (1-62)-hFc (human).
T2 construct: also called soluble human PROKR1 (N-terminal portion)
Described as above. On the procedure:
as §1
Molecule B6 registered a dissociation constant (Kd) of 1.09 nM, a koff of 0.000213 s⁻¹, an on-rate (kon) of 196000 M⁻¹ s⁻¹ and a t½ of 54 min.
The corresponding values for B1 are 0.197 nM, 4.55e-05 s⁻¹, 231000 M⁻¹ s⁻¹ and 254 min.
On the same counts, the results for B7 are 0.264 nM, 6.23e-05 s⁻¹, 236000 M⁻¹ s⁻¹ and 186 min.
On the same counts, the results for B2 are 0.461 nM, 0.000136 s⁻¹, 294000 M⁻¹ s⁻¹ and 85 min.
With B3, the affinity, expressed as Kd, was 10.6 nM; the koff is 0.0062 s⁻¹; the association rate constant (kon) was determined as 583000 M⁻¹ s⁻¹; the t½ was 2 min.
The corresponding values for B4 are 1.12 nM, 0.000287 s⁻¹, 255000 M⁻¹ s⁻¹ and 40 min.
The corresponding values for B5 are 1.07 nM, 0.000412 s⁻¹, 385000 M⁻¹ s⁻¹ and 28 min.

In the next assay the target is T1, human PROKR2(1-53)-hFc. As to the kind of experiment: SPR (Biacore 4000), 25 C, antibody captured. The procedure:
as §1
For the molecule B6, the binding result is “no binding (tested: 25 and 100 nM antigen injected)”.
The same measure, in the same setting: the same measure for B7: “no binding (tested: 25 and 100 nM antigen injected)”.

The target in a further assay is T3, human PROKR1 (human, UniProt Q8TCW9 1-393). As to the kind of experiment: cell-based or functional assay.
T3 sequence (Q8TCW9 whole entry): as the sequence (G7PMD0 entry or part of it) above, with A22V, A31T, G40S, V82I, I135V, R210K, F246V, N348D, A350V counted along it
Turning to B2, the “IC50 (nM), blocking of hPK1 induced calcium flux, CHO/hPROKR1 non-induced (40 or 80 nM hPK1, average)” value turned out to be 14.2 nM and the “IC50 (nM), blocking of hPK2 induced calcium flux, CHO/hPROKR1 non-induced (4 nM hPK2)” value is 20 nM.
For B4, the “IC50 (nM), blocking of hPK1 induced calcium flux, CHO/hPROKR1 non-induced (40 nM hPK1)” value was determined as 3.1 nM and the “IC50 (nM), blocking of hPK2 induced calcium flux, CHO/hPROKR1 non-induced (4 nM hPK2)” value turned out to be 27.4 nM.
B5: the “IC50 (nM), blocking of hPK1 induced calcium flux, CHO/hPROKR1 non-induced (40 nM hPK1)” value is 4.1 nM and the “IC50 (nM), blocking of hPK2 induced calcium flux, CHO/hPROKR1 non-induced (4 nM hPK2)” value is 21.9 nM.

The next assay addresses cynomolgus monkey PROKR1 (cynomolgus monkey (Macaca fascicularis), UniProt G7PMD0 1-393). As to the kind of experiment: cell-based or functional assay.
In the case of B2, the “Block (%), calcium flux, MfPROKR1 + PK1 (5 nM hPK1)” value amounted to 101%; the “Block (%), calcium flux, MfPROKR1 + PK2 (0.5 nM hPK2)” value was 93.7%; the “IC50 (nM), inhibition of calcium flux, MfPROKR1 + PK1 (5 nM hPK1)” value was 6.7 nM; the “IC50 (nM), inhibition of calcium flux, MfPROKR1 + PK2 (0.5 nM hPK2)” value was 51.8 nM.
The corresponding values for B4 are 99.3%, 85.7%, 32.9 nM and 63.9 nM.
With B5, the “Block (%), calcium flux, MfPROKR1 + PK1 (5 nM hPK1)” value was determined as 101%; the “Block (%), calcium flux, MfPROKR1 + PK2 (0.5 nM hPK2)” value is 50.5%; the “IC50 (nM), inhibition of calcium flux, MfPROKR1 + PK1 (5 nM hPK1)” value came to 6.4 nM; the “IC50 (nM), inhibition of calcium flux, MfPROKR1 + PK2 (0.5 nM hPK2)” value is greater than 300 nM.

The next assay concerns the target T4, mouse PROKR2 (mouse (Mus musculus), UniProt Q8K458 1-381).
T4 construct: whole, on cells; Expressed on engineered HEK293 or CHO cells; also called mPROKR2; CHO/mPROKR2
Kind of assay: flow cytometry, HEK293 cells expressing the target, 13 nM antibody. On the procedure: (§2) Anti-PROKR antibodies generated in accordance with Example 1 were tested for the ability to bind to human, mouse, and monkey PROKR1 and PROKR2. For these experiments, HEK293 cells were engineered to express: human PROKR1; human PROKR2; mouse PROKR1; mouse PROKR2; cynomolgus monkey PROKR1; or cynomolgus monkey PROKR2. Binding of anti-human PROKR antibodies to the PROKR-expressing cell lines was measured by flow cytometry.
(§3) Adherent cells were collected using 1 mM EDTA in PBS, then washed, and re-suspended in cold PBS containing 5% FBS. For the binding experiments, each anti-PROKR antibody was added to 250,000 cells in 500 μl of PBS with 5% FBS (final antibody concentration of 13 nM). After incubation for 20 minutes at room temperature, the cells were washed with PBS containing 5% FBS. A secondary antibody, recognizing either human (Jackson Immuno Research, #115-135-205) or mouse Fc (BD Pharmigen, #550826) and conjugated to allophycyanin, was then added to the cell mixture at a final concentration of 13.3 nM. After incubating for 20 minutes on ice, the cells were washed and resuspended in PBS containing 5% FBS and then sorted and analyzed on a FACSCalibur (BD Biosciences) flow cytometer to determine relative binding by the candidate antibodies. The cell samples containing secondary antibody alone were used as negative control for FACS gating. Histograms of cells stained with anti-human PROKR antibodies were compared with cells stained with secondary alone. […] ND=not determined.
In the case of B4, the binding result is on record as “binds”.
As for B5, the binding result is on record as “binds”.

The target in a further assay is T5, human PROKR2 (human, UniProt Q8NFJ6 1-384).
T5 construct: Expressed on engineered HEK293 or CHO cells; also called hPROKR2; prokineticin receptor 2
T5 sequence (Q8NFJ6 whole entry): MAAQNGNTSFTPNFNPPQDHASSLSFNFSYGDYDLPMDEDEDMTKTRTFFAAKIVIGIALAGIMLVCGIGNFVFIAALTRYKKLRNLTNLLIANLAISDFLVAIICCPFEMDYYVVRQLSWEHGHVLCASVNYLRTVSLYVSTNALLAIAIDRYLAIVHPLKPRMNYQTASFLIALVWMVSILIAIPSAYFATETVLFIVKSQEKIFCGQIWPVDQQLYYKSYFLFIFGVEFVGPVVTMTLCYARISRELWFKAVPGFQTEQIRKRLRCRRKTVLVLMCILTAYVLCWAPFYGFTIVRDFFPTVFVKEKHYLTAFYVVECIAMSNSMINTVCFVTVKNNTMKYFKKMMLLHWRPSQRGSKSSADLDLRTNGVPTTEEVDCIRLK
The assay is described as above. On the procedure: as §2, §3
Take B3: the binding result was “binds”.
Still for that read-out and setting: the result for B4 reads “binds”; that for B5, “binds”.

The next assay has as its target T3, human PROKR1. As to the kind of experiment: cell-based or functional assay. The source holds these as a separate data set.
As for B6, the “Block (%), calcium flux, hPROKR1 + PK1 (20 nM hPK1)” value is 59.1% and the “IC50 (nM), inhibition of calcium flux, hPROKR1 + PK1 (20 nM hPK1)” value was 11.2 nM.
For B1, the “Block (%), calcium flux, hPROKR1 + PK1 (20 nM hPK1)” value worked out at 51% and the “IC50 (nM), inhibition of calcium flux, hPROKR1 + PK1 (20 nM hPK1)” value was found to be 16.4 nM.
For the molecule B7, the “Block (%), calcium flux, hPROKR1 + PK1 (20 nM hPK1)” value is 52.4% and the “IC50 (nM), inhibition of calcium flux, hPROKR1 + PK1 (20 nM hPK1)” value worked out at 14 nM.
On to B2, for which the “Block (%), calcium flux, hPROKR1 + PK1 (1 nM hPK1)” value worked out at 101%; the “Block (%), calcium flux, hPROKR1 + PK2 (1 nM hPK2)” value is 77.5%; the “IC50 (nM), inhibition of calcium flux, hPROKR1 + PK1 (1 nM hPK1)” value was 6.3 nM; the “IC50 (nM), inhibition of calcium flux, hPROKR1 + PK2 (1 nM hPK2)” value worked out at 55.1 nM.
For B3, the “Block (%), calcium flux, hPROKR1 + PK1 (20 nM hPK1)” value worked out at 15.5% and the “IC50 (nM), inhibition of calcium flux, hPROKR1 + PK1 (20 nM hPK1)” value was greater than 1000 nM.
With B4, the “Block (%), calcium flux, hPROKR1 + PK1 (1 nM hPK1)” value came to 101%; the “Block (%), calcium flux, hPROKR1 + PK2 (1 nM hPK2)” value is 40%; the “IC50 (nM), inhibition of calcium flux, hPROKR1 + PK1 (1 nM hPK1)” value is 8.5 nM; the “IC50 (nM), inhibition of calcium flux, hPROKR1 + PK2 (1 nM hPK2)” value was greater than 300 nM.
On the same counts, the results for B5 are 98.5%, 56.6%, 6.6 nM and greater than 300 nM.

A further assay has as its target T5, human PROKR2. Kind of assay: flow cytometry, HEK293 cells expressing the target. On the procedure:
as §2, §3
As for B6, the binding result is given as “no binding”.
On to B7, for which the binding result is on record as “no binding”.

The target in another assay is rat PROKR1 (rat (Rattus norvegicus), UniProt Q8R416 1-393). Kind of assay: cell-based or functional assay.
rat PROKR1, sequence (Q8R416 whole entry): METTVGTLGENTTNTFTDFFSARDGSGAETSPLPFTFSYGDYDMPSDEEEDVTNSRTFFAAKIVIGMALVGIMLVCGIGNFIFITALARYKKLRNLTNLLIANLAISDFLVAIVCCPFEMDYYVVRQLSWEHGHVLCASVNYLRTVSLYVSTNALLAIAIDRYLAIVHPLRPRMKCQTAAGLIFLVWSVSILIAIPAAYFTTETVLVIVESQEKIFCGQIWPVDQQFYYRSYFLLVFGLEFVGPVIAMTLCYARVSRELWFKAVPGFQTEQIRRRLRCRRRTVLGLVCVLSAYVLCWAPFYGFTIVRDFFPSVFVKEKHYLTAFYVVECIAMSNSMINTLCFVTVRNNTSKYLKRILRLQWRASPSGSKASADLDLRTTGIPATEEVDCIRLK
In the case of B2, the “Block (%), calcium flux, rPROKR1 + PK1 (1 nM hPK1)” value was 0%.
Same read-out and setting: the result for B4 reads 0%; that for B5, 0%.

For the next assay, the target named is mouse PROKR1 (mouse (Mus musculus), UniProt Q9JKL1 1-393). Kind of assay: cell-based or functional assay.
mouse PROKR1, sequence (Q9JKL1 whole entry): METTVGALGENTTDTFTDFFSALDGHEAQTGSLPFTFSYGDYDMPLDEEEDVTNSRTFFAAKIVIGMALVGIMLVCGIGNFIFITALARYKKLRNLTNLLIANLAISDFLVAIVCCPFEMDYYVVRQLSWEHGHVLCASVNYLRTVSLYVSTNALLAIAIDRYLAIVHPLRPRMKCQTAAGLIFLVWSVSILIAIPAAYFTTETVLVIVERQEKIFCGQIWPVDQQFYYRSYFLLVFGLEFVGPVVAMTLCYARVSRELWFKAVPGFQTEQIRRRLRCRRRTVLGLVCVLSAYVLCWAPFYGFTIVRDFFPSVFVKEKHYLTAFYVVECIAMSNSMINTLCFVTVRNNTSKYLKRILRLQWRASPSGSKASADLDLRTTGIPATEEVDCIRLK
As for B1, the “Block (%), calcium flux, mPROKR1 + PK1 (1 nM hPK1)” value worked out at 0%.
Same read-out and setting: the result for B7 reads 0%.
Same read-out and setting: the result for B2 reads 0%.
On to B4, for which the “Block (%), calcium flux, mPROKR1 + PK1 (1 nM hPK1)” value turned out to be 0%.
Turning to B5, the “Block (%), calcium flux, mPROKR1 + PK1 (1 nM hPK1)” value was found to be 20.9% and the “IC50 (nM), inhibition of calcium flux, mPROKR1 + PK1 (1 nM hPK1)” value was greater than 300 nM.
